Source: patent EP3801029B1 (Morehouse School of Medicine, dated 2024)

How the values were obtained:
[1] = target: T1, Mortalin (UniProt P38646 47-679); assay: peptide pull-down from Jurkat cell lysate, Western blot
T1 construct: Endogenous protein from Jurkat cells (a human cell line); also called Glucose-regulated protein 75; GRP75

[2] = target: T2, E. coli DnaK protein (Escherichia coli, UniProt P0A6Y8 2-638); assay: ANTI-FLAG M2 pull-down from E. coli lysate, Western blot with anti-DnaK antibody
T2 construct: Endogenous protein from E. coli lysate; also called heat shock protein 70; Hsp70
T2 sequence (P0A6Y8 2-638 limits assumed): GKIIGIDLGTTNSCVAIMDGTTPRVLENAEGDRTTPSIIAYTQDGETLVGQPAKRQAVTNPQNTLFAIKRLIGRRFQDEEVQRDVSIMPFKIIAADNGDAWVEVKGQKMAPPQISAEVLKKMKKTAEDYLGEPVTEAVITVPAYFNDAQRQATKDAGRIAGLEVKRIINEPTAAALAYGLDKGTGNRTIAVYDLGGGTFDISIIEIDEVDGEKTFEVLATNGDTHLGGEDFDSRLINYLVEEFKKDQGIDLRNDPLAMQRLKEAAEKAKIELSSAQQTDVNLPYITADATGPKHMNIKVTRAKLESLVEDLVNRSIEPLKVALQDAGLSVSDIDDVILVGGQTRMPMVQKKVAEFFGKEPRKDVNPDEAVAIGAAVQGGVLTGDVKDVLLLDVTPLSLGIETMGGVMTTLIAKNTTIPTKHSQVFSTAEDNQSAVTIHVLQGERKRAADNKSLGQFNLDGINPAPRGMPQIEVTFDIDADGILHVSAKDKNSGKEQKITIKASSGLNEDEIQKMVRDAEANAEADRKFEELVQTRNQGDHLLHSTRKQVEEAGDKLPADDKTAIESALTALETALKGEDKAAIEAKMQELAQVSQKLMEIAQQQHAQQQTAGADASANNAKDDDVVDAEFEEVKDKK

[3] = target: T1, Mortalin; assay: peptide pull-down from Jurkat cell lysate, Western blot with anti-mortalin antibody

T1 sequence (P38646 47-679 limits assumed): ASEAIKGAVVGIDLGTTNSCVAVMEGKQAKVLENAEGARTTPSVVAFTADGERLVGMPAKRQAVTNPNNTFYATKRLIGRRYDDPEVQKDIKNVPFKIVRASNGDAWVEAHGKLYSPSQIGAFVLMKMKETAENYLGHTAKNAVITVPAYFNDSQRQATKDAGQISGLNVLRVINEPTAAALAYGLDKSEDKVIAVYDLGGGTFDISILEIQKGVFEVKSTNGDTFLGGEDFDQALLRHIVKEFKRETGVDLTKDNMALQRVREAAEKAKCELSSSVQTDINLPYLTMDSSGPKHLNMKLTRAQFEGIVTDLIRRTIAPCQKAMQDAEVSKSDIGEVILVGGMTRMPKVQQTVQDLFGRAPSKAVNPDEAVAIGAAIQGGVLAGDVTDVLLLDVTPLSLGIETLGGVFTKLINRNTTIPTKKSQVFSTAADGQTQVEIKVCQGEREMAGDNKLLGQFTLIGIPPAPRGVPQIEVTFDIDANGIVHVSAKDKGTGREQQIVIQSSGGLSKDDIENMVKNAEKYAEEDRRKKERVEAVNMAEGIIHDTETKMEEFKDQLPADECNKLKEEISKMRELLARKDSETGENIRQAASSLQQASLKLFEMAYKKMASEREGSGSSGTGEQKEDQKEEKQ

Row | Binder | binding result [1] | binding result [2] | binding result [3]
1 | VGFPVAAVGFPVDYKDDDDK (also called SMR peptide; antagonist) [synthetic HIV-1 Nef SMRwt peptide (VGFPVAAVGFPVDYKDDDDK)] | binds |  | 
2 | AGFPVAAAGFPVDYKDDDDK (also called negative control peptide; mutant SMR peptide) [synthetic HIV-1 Nef SMRmut peptide (AGFPVAAAGFPVDYKDDDDK)] |  | no binding (tested: 1 µg peptide with 1 mg E. coli lysate) | no binding
